The record followed here is the nanobody polyreactivity screen of Harvey et al. (2022).

This data set in a line: yeast display, Sf9 membrane polyspecificity reagent, FACS + sequencing; frameworks hold sequencing errors. In short, it runs like this:
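A nanobody's polyreactivity label depends on the gate it was sorted from. Yeast display cells were stained with 10% biotinylated, detergent-solubilized Sf9 membrane reagent for 1 hour at 4 °C, enriched on streptavidin microbeads and sorted by FACS. The low and high (top ~1%) gates were set on anti-HA fluorescence for expression and streptavidin fluorescence for reagent binding.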
As to “QVQLVESGGGLVQAGGSLRLSCAASGINFVRNAMGWYRQAPGKERELVAAITGRGVSTYYADSVKGRFTISRDNAKNTVYLQMKSLKPEDTAVYYCAARYSSRGTYPRRYDYWGQGTQVTVSS”, the “polyreactivity (PSR sort gate)” value was “high polyreactivity”.

Turning to “QVQLVESGGGLVQAGGSLRLSCAASGIPRNTMGWYRQAPGKERELVASISTSGGSTYYADSVKGRFTLSRDNANNTVYLQMNSLKPEDTAVYYCAKKGYASRYFIYDYWGQGTQVTVSS”, the “polyreactivity (PSR sort gate)” value is recorded as “low polyreactivity”.

Take “QVQLVESGGGLVQAGGSLRLSCAASGISFYEYGMGWYRQAPGKERELVAAITFGGGSTYYADSVKGRFTISRDNAKNTVYLQMNSLKPEDTAVYDCAADRVYWGRVQGYYWGQGTQVTVSS”: the “polyreactivity (PSR sort gate)” value is listed as “low polyreactivity”.

“QVQLVESGGGLVQAGGSLRLSCAASGITFAGYTMGWYRQAPGKERELVAAISWRTGSTYYADSVKGRFTISRDTAKNTVYLQMNSLKPEDTAVYYCAARVPSPYVATYYYWGQGTQVTVSS”: the “polyreactivity (PSR sort gate)” value is “high polyreactivity”.

For “QVQLVESGGGLVQAGGSLRLSCAASGITFAPYAMGRYRQAPGKERELVAAIRGSTTSTYYADSVKGRFTISRDNAKNTVYLQINSLKPEDTAVYYCAAAGWKGLGRFYSWGQGTQVTLSS”, the “polyreactivity (PSR sort gate)” value is given as “high polyreactivity”.

Consider “QVQLVESGGGLVQAGGSLRLSCAASGITFAQYAMGWYRQAPGKEREVVAGITRSGGSTHYADSVKGRFTISRDNAKNTVYLQMNSLKPEDTAVYYCNARYPYRGKRKPSDYWGQGTQVTVSS”, for which the “polyreactivity (PSR sort gate)” value is on record as “high polyreactivity”.

As for “QVQLVESGGGLVQAGGSLRLSCAASGITFARYAMGWYRQAPGKERELVAAISQSGGSTYYADSVKGRFTISRDNAKNTVYLQMNSLKPEDTAVYYCNAYYVNYVSNYEYWGQGTQVTVSS”, the “polyreactivity (PSR sort gate)” value is given as “high polyreactivity”.

On to “QVQLVESGGGLVQAGGSLRLSCAASGITFARYAMGWYRQAPGKERELVAAITRSGGSTNYADSVKGRFTISRDNAKNTVYLQMNSLKPEDTAVYYCAAAGYRFRFVYSRYEYWGQGTQVTVSS”, for which the “polyreactivity (PSR sort gate)” value is reported as “high polyreactivity”.

Consider “QVQLVESGGGLVQAGGSLRLSCAASGITFARYTMGWYRQAPGKERELVAAITWSGGRTYYADSVKGRFTISRDNAKNTVYLQMNSLKPEDTAVYYCNVDLGRYGTSSGASVGYGDYDYWGQGTQVTVSS”, for which the “polyreactivity (PSR sort gate)” value was “high polyreactivity”.

“QVQLVESGGGLVQAGGSLRLSCAASGITFAYNAMGWYRQAPGKERELVATISIGGNTNYADSVKGRFTISRDNAKNTVYLQMNSLKPEDTAVYYCNADFPHEGGFCYWGQGTQVTVSS”: the “polyreactivity (PSR sort gate)” value is “low polyreactivity”.

As for “QVQLVESGGGLVQAGGSLRLSCAASGITFAYNAMGWYRQEPGKERELVARITSGGRTYYADSVKGRFTISRDNAKNTVYLQMNSLKPEDTAVYYCATPYTSYLYGYDYWGQGTQVTVSS”, the “polyreactivity (PSR sort gate)” value was “low polyreactivity”.

Take “QVQLVESGGGLVQAGGSLRLSCAASGITFAYYAMGWYRQAPGKERELVAAIRGGTNTYYADSVKGRFTISRDNAKYTVYLQMNSLKPEDTGVYYCAVRLYLEMDYWGQGTQVTVSS”: the “polyreactivity (PSR sort gate)” value is listed as “high polyreactivity”.

As to “QVQLVESGGGLVQAGGSLRLSCAASGITFAYYAMGWYRQAPGKERELVAAISSTGSSTYYADSVKGRFTISRDNAKNTVYLQMNSLKPEDTAVYYCNKLQQYTLSEYWGQGTQVTVSS”, the “polyreactivity (PSR sort gate)” value is listed as “high polyreactivity”.

Regarding “QVQLVESGGGLVQAGGSLRLSCAASGITFAYYAMGWYRQAPGTEREWVAAISRSGGGTYYADSVKGRFTISRDNAKNTVYLQMNTLIPEDTAVYYCNKDYPYYNSGPWAYKFDYCGQGTQVTVSS”, the “polyreactivity (PSR sort gate)” value is on record as “high polyreactivity”.

With “QVQLVESGGGLVQAGGSLRLSCAASGITFAYYTMGWYRQAPGKERELVAGISSSGGRTYYADSVKGRFTISRDNAKNTVYLQMNSLKPEDTAVYYCAARFGYRGSTYTLTYGYWGQGTQVTVSS”, the “polyreactivity (PSR sort gate)” value was “high polyreactivity”.

For the sequence “QVQLVESGGGLVQAGGSLRLSCAASGITFDAHAMGWYRQAPGKERELVARISSGGSTNYADSVKGRFTISRDNAKNTVYLQMNSLKPEDTAVYYCANSYLYGFDYWGQGTQVTVSS”, the “polyreactivity (PSR sort gate)” value is “low polyreactivity”.

As for “QVQLVESGGGLVQAGGSLRLSCAASGITFDDYAMGWYRQAPGKERELVAAISVSGGDTYYADSVKGRFTISRDNAKNTVYLQMNSLKPEDSAVYYCAAEEVSPRWYDYWGLGTQVTVSS”, the “polyreactivity (PSR sort gate)” value is on record as “low polyreactivity”.

For the sequence “QVQLVESGGGLVQAGGSLRLSCAASGITFDENTMGWYRQAPGKERELVAAITEIGGSTYYADSVKGRFTISRDNAKNTVYLQMNSLKPEDTAVYYCNAARWVVRFVDYEYWGQGTQVTVSS”, the “polyreactivity (PSR sort gate)” value was “low polyreactivity”.

As to “QVQLVESGGGLVQAGGSLRLSCAASGITFDGYAMGWYRQAPGKETELVAANSWSGGRTYYADSVKGRFTISRDNAKNTVYLQMNSLKPEDTAVYYCGVYRRGVVYLLTSGVDYWGQGTQVTVSS”, the “polyreactivity (PSR sort gate)” value is “high polyreactivity”.

On to “QVQLVESGGGLVQAGGSLRLSCAASGITFDGYDMGWYRQAPGKEREMVATIDSGGITYYADSVKGRFTISRDNAKNTVYLQMNSLKPEDTAVYYCNADEWYYNFDIVEFDYWGQGTQVTVSS”, for which the “polyreactivity (PSR sort gate)” value was “low polyreactivity”.

For the sequence “QVQLVESGGGLVQAGGSLRLSCAASGITFDHYAMGWYRQAPGKERELVAAITSGGNTNYADSVKGRFTISRDNAKNTVYLQMNSLKPEDTAVYYCNARYDVWYYYWGQGTQVTVSS”, the “polyreactivity (PSR sort gate)” value is on record as “high polyreactivity”.

In the case of “QVQLVESGGGLVQAGGSLRLSCAASGITFDIYAMGWYRQAPGKVRELVAAISGSDGSTYYADSVKGRFTISRDNAKNTVYLQMNSLKPEDTAVYYGAAESEYAGTYESDYWGLGTQVTVSS”, the “polyreactivity (PSR sort gate)” value is given as “low polyreactivity”.

On to “QVQLVESGGGLVQAGGSLRLSCAASGITFDTYAMGWYRQAPGKERELVAAISKSGGSPYYADSVKARFTISRDNAKNTVYLQMNSLKPEDTAVNYCNARYRHSGRYWDWYYYWGQGTQVTVSS”, for which the “polyreactivity (PSR sort gate)” value is reported as “high polyreactivity”.

For “QVQLVESGGGLVQAGGSLRLSCAASGITFDVNAMGWYRQAPGKERELVAAITAGGNTYYADSVKGRFTISRDNAKNTVYLQMNSLKPEDTAVYYCAAVSTSLYWAGYDYWGQGTQVTVSS”, the “polyreactivity (PSR sort gate)” value is “low polyreactivity”.

Turning to “QVQLVESGGGLVQAGGSLRLSCAASGITFDYYAMGWYRQAPGKERELVAAIRSGGSTNYADSVKGRFTISRDNAKNTVYLQMNSLKPVDTAVYYCAAVRYYPWYDYWGQGTQVTVSS”, the “polyreactivity (PSR sort gate)” value is recorded as “high polyreactivity”.

On to “QVQLVESGGGLVQAGGSLRLSCAASGITFDYYAMGWYRQAPGKERELVAAISGGDSTNYADSVKGRFTISRDNEKNTVYLQMNSLKPEDTAVYYCNVQYSGLYWSYRIDFDYWGQGTQVTVSS”, for which the “polyreactivity (PSR sort gate)” value is reported as “high polyreactivity”.

On to “QVQLVESGGGLVQAGGSLRLSCAASGITFDYYGMGWYRQAPGKEGELVASITSGGSTNYADSVNGRFTISRDNAKNTVYLQMNSLKPEDTAVYYCNAEFWEVSPDRRDYDYWGQGTQVTVSS”, for which the “polyreactivity (PSR sort gate)” value was “low polyreactivity”.

Regarding “QVQLVESGGGLVQAGGSLRLSCAASGITFEDYAMGWYRQAPGKERELVAAITSNGGSTYYADSVKGRFTISRDNAKNTVYLQMNSLKPEDTAVYYCAATKYFSYYGRVSWADGGYWGQGTQVTVSS”, the “polyreactivity (PSR sort gate)” value is listed as “low polyreactivity”.

With “QVQLVESGGGLVQAGGSLRLSCAASGITFEGYSMGWYRQAPGKERELVAAIRSSGTSTYYADSVKGRFTISRDNAKNTVYLQMNSLKPEDTAVYYCNRARSSSRYDYWGQGTQVTVSS”, the “polyreactivity (PSR sort gate)” value was “low polyreactivity”.

Consider “QVQLVESGGGLVQAGGSLRLSCAASGITFEPYAMGWDREAPGKEREFVSDNTWSGGSTYYADSVKSRFTISRDNANNTVYLQMNSLKPEDTAVYYCAADGWTSYWSDYWGQGTQVTVSS”, for which the “polyreactivity (PSR sort gate)” value was “low polyreactivity”.
